Measurements published in paper PMC10279549 (Blood Advances, 2023).

B1: Protein S (natural protein, UniProt P07225 42-676, looked up)
chain: ANSLLEETKQGNLERECIEELCNKEEAREVFENDPETDYFYPKYLVCLRSFQTGLFTAARQSTNAYPDLRSCVNAIPDQCSPLPCNEDGYMSCKDGKASFTCTCKPGWQGEKCEFDINECKDPSNINGGCSQICDNTPGSYHCSCKNGFVMLSNKKDCKDVDECSLKPSICGTAVCKNIPGDFECECPEGYRYNLKSKSCEDIDECSENMCAQLCVNYPGGYTCYCDGKKGFKLAQDQKSCEVVSVCLPLNLDTKYELLYLAEQFAGVVLYLKFRLPEISRFSAEFDFRTYDSEGVILYAESIDHSAWLLIALRGGKIEVQLKNEHTSKITTGGDVINNGLWNMVSVEELEHSISIKIAKEAVMDINKPGPLFKPENGLLETKVYFAGFPRKVESELIKPINPRLDGCIRSWNLMKQGASGIKEIIQEKQNKHCLVTVEKGSYYPGSGIAQFHIDYNNVSSAEGWHVNVTLNIRPSTGTGVMLALVSGNNTVPFAVSLVDSTSEKSQDILLSVENTVIYRIQALSLCSDQQSHLEFRVNRNNLELSTPLKIETISHEDLQRQLAVLDKAMKAKVATYLGGLPDVPFSATPVNAFYNGCMEVNINGVQLDLDEAISKHNDIRAHSCPSVWKKTKNS

Experiments:
Assay in all cases: SPR
[1] = biological target: Glu-Gly-Arg-chloromethylketone active site-blocked activated protein C (EGR-APC)
[2] = biological target: Full-length recombinant factor V W1920R (FV Nara) (human, UniProt P12259 29-2224, W1920R)
Full-length recombinant factor V W1920R (FV Nara), sequence (P12259 29-2224 W1948R): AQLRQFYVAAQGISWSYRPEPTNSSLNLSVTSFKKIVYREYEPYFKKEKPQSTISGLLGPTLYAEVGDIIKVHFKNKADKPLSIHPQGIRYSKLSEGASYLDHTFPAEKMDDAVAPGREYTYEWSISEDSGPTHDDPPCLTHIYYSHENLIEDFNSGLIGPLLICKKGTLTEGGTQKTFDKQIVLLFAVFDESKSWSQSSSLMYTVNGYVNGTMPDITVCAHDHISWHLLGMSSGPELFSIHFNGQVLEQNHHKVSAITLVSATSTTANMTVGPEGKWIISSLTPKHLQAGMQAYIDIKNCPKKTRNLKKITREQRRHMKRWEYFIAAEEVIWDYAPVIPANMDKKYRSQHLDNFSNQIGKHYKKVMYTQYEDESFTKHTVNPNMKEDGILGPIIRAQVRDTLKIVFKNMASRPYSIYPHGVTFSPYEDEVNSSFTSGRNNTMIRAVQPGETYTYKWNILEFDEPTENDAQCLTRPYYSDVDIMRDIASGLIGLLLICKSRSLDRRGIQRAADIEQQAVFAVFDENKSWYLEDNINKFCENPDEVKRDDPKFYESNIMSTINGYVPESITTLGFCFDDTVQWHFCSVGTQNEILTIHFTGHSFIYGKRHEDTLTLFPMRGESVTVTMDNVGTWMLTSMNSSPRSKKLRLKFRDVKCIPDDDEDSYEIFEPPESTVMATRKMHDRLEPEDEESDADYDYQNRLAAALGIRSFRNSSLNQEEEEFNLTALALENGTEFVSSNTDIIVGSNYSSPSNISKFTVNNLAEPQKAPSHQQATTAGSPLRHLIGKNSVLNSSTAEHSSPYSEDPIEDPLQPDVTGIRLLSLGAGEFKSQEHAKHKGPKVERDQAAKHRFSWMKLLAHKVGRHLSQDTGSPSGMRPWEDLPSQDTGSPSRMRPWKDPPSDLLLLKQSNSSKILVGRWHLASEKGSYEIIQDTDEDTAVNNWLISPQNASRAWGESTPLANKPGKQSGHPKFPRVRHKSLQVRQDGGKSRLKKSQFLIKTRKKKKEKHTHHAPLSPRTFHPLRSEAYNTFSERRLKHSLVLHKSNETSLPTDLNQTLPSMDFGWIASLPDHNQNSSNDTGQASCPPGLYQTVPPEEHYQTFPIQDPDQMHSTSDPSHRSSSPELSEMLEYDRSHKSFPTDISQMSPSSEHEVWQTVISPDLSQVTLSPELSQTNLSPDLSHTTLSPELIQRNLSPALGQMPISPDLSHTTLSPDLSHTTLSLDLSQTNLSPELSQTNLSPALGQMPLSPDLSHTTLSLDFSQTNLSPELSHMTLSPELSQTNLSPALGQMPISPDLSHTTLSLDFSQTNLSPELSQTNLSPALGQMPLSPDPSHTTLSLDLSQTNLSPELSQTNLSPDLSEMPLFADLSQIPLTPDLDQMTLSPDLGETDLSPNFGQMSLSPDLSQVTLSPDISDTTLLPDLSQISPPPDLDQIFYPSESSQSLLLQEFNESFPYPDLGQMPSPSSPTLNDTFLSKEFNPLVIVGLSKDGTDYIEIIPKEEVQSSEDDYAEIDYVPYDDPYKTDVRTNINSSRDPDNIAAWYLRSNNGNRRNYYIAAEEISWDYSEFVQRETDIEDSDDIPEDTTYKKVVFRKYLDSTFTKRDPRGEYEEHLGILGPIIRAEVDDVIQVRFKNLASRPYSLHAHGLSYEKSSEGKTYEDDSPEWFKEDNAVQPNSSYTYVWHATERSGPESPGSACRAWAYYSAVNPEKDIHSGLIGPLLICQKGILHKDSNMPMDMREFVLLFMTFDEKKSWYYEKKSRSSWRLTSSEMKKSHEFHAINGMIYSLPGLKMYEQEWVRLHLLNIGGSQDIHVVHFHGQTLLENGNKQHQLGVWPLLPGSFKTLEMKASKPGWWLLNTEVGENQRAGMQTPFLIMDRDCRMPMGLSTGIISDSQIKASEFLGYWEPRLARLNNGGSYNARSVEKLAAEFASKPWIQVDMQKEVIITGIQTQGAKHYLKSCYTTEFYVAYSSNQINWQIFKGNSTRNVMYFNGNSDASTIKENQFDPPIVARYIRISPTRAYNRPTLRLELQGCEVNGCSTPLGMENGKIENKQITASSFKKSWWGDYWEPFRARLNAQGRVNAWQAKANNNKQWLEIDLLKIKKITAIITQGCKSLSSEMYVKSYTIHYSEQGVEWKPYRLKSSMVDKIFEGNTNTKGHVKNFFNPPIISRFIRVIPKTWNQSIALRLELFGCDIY

[3] = biological target: Full-length wild-type recombinant factor V (FV-WT) (human, UniProt P12259 29-2224)
Full-length wild-type recombinant factor V (FV-WT), sequence (P12259 29-2224): as the sequence (P12259 29-2224 W1948R) above, with R1920W counted along it

[4] = biological target: Full-length recombinant factor V R506Q (FV Leiden) (human, UniProt P12259 29-2224, R506Q)
Full-length recombinant factor V R506Q (FV Leiden), sequence (P12259 29-2224 R534Q): as the sequence (P12259 29-2224 W1948R) above, with R506Q, R1920W counted along it

| Molecule | Kd [1] | koff [1] | kon [1] | Kd [2] | koff [2] | kon [2] | Kd [3] | koff [3] | kon [3] | Kd [4] | koff [4] | kon [4] |
| --- | --- | --- | --- | --- | --- | --- | --- | --- | --- | --- | --- | --- |
| Full-length recombinant factor V A2086D (FV Besançon) (from UniProt P12259 29-2224) (natural protein) | 20.3 nM | 0.00268 s⁻¹ | 132000 M⁻¹ s⁻¹ |  |  |  |  |  |  |  |  |  |
| Full-length recombinant factor V R506Q (FV Leiden) (from UniProt P12259 29-2224) (natural protein) | 19.1 nM | 0.00457 s⁻¹ | 239000 M⁻¹ s⁻¹ |  |  |  |  |  |  |  |  |  |
| Full-length recombinant factor V W1920R (FV Nara) (from UniProt P12259 29-2224) (natural protein) | 12.8 nM | 0.00433 s⁻¹ | 338000 M⁻¹ s⁻¹ |  |  |  |  |  |  |  |  |  |
| Full-length wild-type recombinant factor V (FV-WT) (from UniProt P12259 29-2224) (natural protein) | 10.7 nM | 0.00359 s⁻¹ | 337000 M⁻¹ s⁻¹ |  |  |  |  |  |  |  |  |  |
| B1 |  |  |  | 26.2 nM | 0.00382 s⁻¹ | 145000 M⁻¹ s⁻¹ | 7.56 nM | 0.00393 s⁻¹ | 520000 M⁻¹ s⁻¹ | 5.26 nM | 0.00374 s⁻¹ | 711000 M⁻¹ s⁻¹ |
